# Residue numbers refer to the chain shown, from its start.
# T1: p72 (Cari)
# T1 chain: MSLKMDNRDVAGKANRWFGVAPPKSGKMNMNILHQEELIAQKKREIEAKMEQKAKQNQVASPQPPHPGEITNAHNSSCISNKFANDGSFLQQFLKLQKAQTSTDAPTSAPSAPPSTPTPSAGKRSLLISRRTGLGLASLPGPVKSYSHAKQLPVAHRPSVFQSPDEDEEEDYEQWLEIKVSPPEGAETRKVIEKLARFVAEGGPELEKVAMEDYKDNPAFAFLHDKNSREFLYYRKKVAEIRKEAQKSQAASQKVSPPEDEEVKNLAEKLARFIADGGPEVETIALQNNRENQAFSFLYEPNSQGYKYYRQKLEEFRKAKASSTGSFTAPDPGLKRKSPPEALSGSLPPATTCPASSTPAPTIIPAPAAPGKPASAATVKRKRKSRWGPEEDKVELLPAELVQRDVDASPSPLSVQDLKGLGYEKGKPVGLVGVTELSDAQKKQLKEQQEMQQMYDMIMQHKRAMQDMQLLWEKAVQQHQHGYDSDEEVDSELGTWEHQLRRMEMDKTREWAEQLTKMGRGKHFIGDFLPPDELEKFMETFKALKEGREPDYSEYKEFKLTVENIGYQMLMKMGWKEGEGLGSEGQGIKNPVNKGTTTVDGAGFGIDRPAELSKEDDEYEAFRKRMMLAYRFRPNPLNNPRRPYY
# T2: p72 (1-600)
# T2 chain: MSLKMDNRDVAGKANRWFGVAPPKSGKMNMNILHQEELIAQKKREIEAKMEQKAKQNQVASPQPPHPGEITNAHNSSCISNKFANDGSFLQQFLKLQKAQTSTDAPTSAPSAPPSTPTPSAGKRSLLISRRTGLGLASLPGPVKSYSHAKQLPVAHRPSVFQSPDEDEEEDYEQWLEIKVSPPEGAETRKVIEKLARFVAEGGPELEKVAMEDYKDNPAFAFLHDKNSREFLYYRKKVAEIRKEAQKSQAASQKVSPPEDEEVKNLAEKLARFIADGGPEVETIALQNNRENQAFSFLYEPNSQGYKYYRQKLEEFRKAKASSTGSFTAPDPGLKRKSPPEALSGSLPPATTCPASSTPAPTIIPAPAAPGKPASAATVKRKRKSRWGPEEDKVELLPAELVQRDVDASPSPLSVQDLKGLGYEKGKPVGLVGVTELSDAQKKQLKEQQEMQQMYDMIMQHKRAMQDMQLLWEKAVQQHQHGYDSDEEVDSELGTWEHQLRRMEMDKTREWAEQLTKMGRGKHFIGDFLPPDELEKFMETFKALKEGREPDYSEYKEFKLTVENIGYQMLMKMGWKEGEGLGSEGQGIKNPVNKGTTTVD
# T3: p72 (D600E)
# T3 chain: T1 chain with D600E
# B1: recombinant active caspase-8 (protein)
# chain 1: EELCGVMTISDSPREQDSESQTLDKVYQMKSKPRGYCLIINNHNFAKAREKVPKLHSIRDRNGTHLDAGALTTTFEELHFEIKPHHDCTVEQIYEILKIYQLMDHSNMDCFICCILSHGDKGIIYGTDGQEAPIYELTSQFTGLKCPSLAGKPKVFFI
# chain 2: GIPVETDSEEQPYLEMDLSSPQTRYIPDEADFLLGMATVNNCVSYRNPAEGTWYIQSLCQSLRERCPRGDDILTILTEVNYEVSNKDDKKNMGKQ
# What was measured:
# p72 (Cari) = target: T1, p72 (Cari)
# p72 (1-600) = target: T2, p72 (1-600)
# p72 (D600E) = target: T3, p72 (D600E)
protein,measurement,setting,value
B1,"cleavage of in vitro translated 35S-labeled Cari by recombinant active caspase-8 (SDS-PAGE, phospho-imaging)",p72 (Cari),This band disappears after addition of activated caspase-8 for 1 hour and a new smaller fragment corresponding to 68 kDa appears (lane 4)
same,"cleavage of in vitro translated 35S-labeled Cari 1-600 by recombinant active caspase-8 (SDS-PAGE, phospho-imaging)",p72 (1-600),co-migrates with the 68 kDa fragment produced after cleavage of the wild type Cari and is not further cleaved by addition of caspase-8
same,"cleavage of in vitro translated 35S-labeled Cari D600E by recombinant active caspase-8 (SDS-PAGE, phospho-imaging)",p72 (D600E),the same protein profile of Cari D600E mutant is observed in the presence or the absence of caspase-8

# Source: patent US20050048639
